Data on 19 molecules can be found in patent US20110118447A1.

The target in experiment [1] is binding partner of C5A (XPA23). Description: Biacore. Background: Surface plasmon resonance follows binding to a sensor surface in real time, without labels.
In experiment [2] the target is binding partner of C5A (XPA23). Description: Biacore, K-off.
Experiment [3] has as its target binding partner (antigen) of C5A (XPA23). Description: Biacore, K-off, fold vs original.

B1: C5A (XPA23) VH D106K (antibody, V domains shown)
VH: EVQLLESGGGLVQPGGSLRLSCAASGFTFSKYFMFWVRQAPGKGLEWVSVISPSGGMTRYADSVKGRFTISRDNSKNTLYLQMNSLRAEDTAVYYCARVGYGGNSKYWGQGTLVTVSS
VL: DIQMTQSPSSVSASVGDRLTIICRASQDINRWLAWYQQTPGNAPKLLIHSATSLQSGVPSRFSGSGSGTDFTLTINSLQPEDFATYYCQQADSFPLTFGGGTKVEIK
For the molecule B1, the fold affinity vs original in experiment [1] came out at 0.04 fold. Besides, in experiment [2], the fold difference in affinity vs original was found to be 0.04 fold.

B2: C5A (XPA23) VH F35G (antibody, V domains shown)
VH: EVQLLESGGGLVQPGGSLRLSCAASGFTFSKYFMGWVRQAPGKGLEWVSVISPSGGMTRYADSVKGRFTISRDNSKNTLYLQMNSLRAEDTAVYYCARVGYGGNSDYWGQGTLVTVSS
VL: DIQMTQSPSSVSASVGDRLTIICRASQDINRWLAWYQQTPGNAPKLLIHSATSLQSGVPSRFSGSGSGTDFTLTINSLQPEDFATYYCQQADSFPLTFGGGTKVEIK
Turning to B2, the fold difference in affinity vs original in experiment [1] and in experiment [3] was 0.04 fold throughout.

B3: C5A (XPA23) VH D106Q (antibody, V domains shown)
VH: EVQLLESGGGLVQPGGSLRLSCAASGFTFSKYFMFWVRQAPGKGLEWVSVISPSGGMTRYADSVKGRFTISRDNSKNTLYLQMNSLRAEDTAVYYCARVGYGGNSQYWGQGTLVTVSS
VL: DIQMTQSPSSVSASVGDRLTIICRASQDINRWLAWYQQTPGNAPKLLIHSATSLQSGVPSRFSGSGSGTDFTLTINSLQPEDFATYYCQQADSFPLTFGGGTKVEIK
B3: the fold affinity vs original in experiment [1] was determined as 0.02 fold. Besides, the fold difference in affinity vs original in experiment [2] turned out to be 0.02 fold.

B4: C5A (XPA23) VH Y107R (antibody, V domains shown)
VH: EVQLLESGGGLVQPGGSLRLSCAASGFTFSKYFMFWVRQAPGKGLEWVSVISPSGGMTRYADSVKGRFTISRDNSKNTLYLQMNSLRAEDTAVYYCARVGYGGNSDRWGQGTLVTVSS
VL: DIQMTQSPSSVSASVGDRLTIICRASQDINRWLAWYQQTPGNAPKLLIHSATSLQSGVPSRFSGSGSGTDFTLTINSLQPEDFATYYCQQADSFPLTFGGGTKVEIK
As for B4, in experiment [1], the fold affinity vs original turned out to be 0.85 fold. The fold difference in affinity vs original in experiment [2] was determined as 0.85 fold.

B5: C5A (XPA23) VH F35P (antibody, V domains shown)
VH: EVQLLESGGGLVQPGGSLRLSCAASGFTFSKYFMPWVRQAPGKGLEWVSVISPSGGMTRYADSVKGRFTISRDNSKNTLYLQMNSLRAEDTAVYYCARVGYGGNSDYWGQGTLVTVSS
VL: DIQMTQSPSSVSASVGDRLTIICRASQDINRWLAWYQQTPGNAPKLLIHSATSLQSGVPSRFSGSGSGTDFTLTINSLQPEDFATYYCQQADSFPLTFGGGTKVEIK
As to B5, the fold difference in affinity vs original in experiment [1] and in experiment [3] was 0.06 fold in each case.

B6: C5A (XPA23) VH Y107D (antibody, V domains shown)
VH: EVQLLESGGGLVQPGGSLRLSCAASGFTFSKYFMFWVRQAPGKGLEWVSVISPSGGMTRYADSVKGRFTISRDNSKNTLYLQMNSLRAEDTAVYYCARVGYGGNSDDWGQGTLVTVSS
VL: DIQMTQSPSSVSASVGDRLTIICRASQDINRWLAWYQQTPGNAPKLLIHSATSLQSGVPSRFSGSGSGTDFTLTINSLQPEDFATYYCQQADSFPLTFGGGTKVEIK
With B6, in experiment [1], the fold affinity vs original stood at 0.85 fold. Moreover, the fold difference in affinity vs original in experiment [2] was determined as 0.85 fold.

B7: C5A (XPA23) VH D106R (antibody, V domains shown)
VH: EVQLLESGGGLVQPGGSLRLSCAASGFTFSKYFMFWVRQAPGKGLEWVSVISPSGGMTRYADSVKGRFTISRDNSKNTLYLQMNSLRAEDTAVYYCARVGYGGNSRYWGQGTLVTVSS
VL: DIQMTQSPSSVSASVGDRLTIICRASQDINRWLAWYQQTPGNAPKLLIHSATSLQSGVPSRFSGSGSGTDFTLTINSLQPEDFATYYCQQADSFPLTFGGGTKVEIK
Regarding B7, the fold affinity vs original in experiment [1] was 0.06 fold. Besides, the fold difference in affinity vs original in experiment [2] came to 0.06 fold.

B8: C5A (XPA23) VH D106S (antibody, V domains shown)
VH: EVQLLESGGGLVQPGGSLRLSCAASGFTFSKYFMFWVRQAPGKGLEWVSVISPSGGMTRYADSVKGRFTISRDNSKNTLYLQMNSLRAEDTAVYYCARVGYGGNSSYWGQGTLVTVSS
VL: DIQMTQSPSSVSASVGDRLTIICRASQDINRWLAWYQQTPGNAPKLLIHSATSLQSGVPSRFSGSGSGTDFTLTINSLQPEDFATYYCQQADSFPLTFGGGTKVEIK
Turning to B8, the fold affinity vs original in experiment [1] stood at 0.03 fold. Besides, the fold difference in affinity vs original in experiment [2] came to 0.03 fold.

B9: C5A (XPA23) VH D106N (antibody, V domains shown)
VH: EVQLLESGGGLVQPGGSLRLSCAASGFTFSKYFMFWVRQAPGKGLEWVSVISPSGGMTRYADSVKGRFTISRDNSKNTLYLQMNSLRAEDTAVYYCARVGYGGNSNYWGQGTLVTVSS
VL: DIQMTQSPSSVSASVGDRLTIICRASQDINRWLAWYQQTPGNAPKLLIHSATSLQSGVPSRFSGSGSGTDFTLTINSLQPEDFATYYCQQADSFPLTFGGGTKVEIK
In the case of B9, in experiment [1], the fold affinity vs original worked out at 0.07 fold. Besides, the fold difference in affinity vs original in experiment [2] came out at 0.07 fold.

B10: C5A (XPA23) VH D106H (antibody, V domains shown)
VH: EVQLLESGGGLVQPGGSLRLSCAASGFTFSKYFMFWVRQAPGKGLEWVSVISPSGGMTRYADSVKGRFTISRDNSKNTLYLQMNSLRAEDTAVYYCARVGYGGNSHYWGQGTLVTVSS
VL: DIQMTQSPSSVSASVGDRLTIICRASQDINRWLAWYQQTPGNAPKLLIHSATSLQSGVPSRFSGSGSGTDFTLTINSLQPEDFATYYCQQADSFPLTFGGGTKVEIK
B10: the fold affinity vs original in experiment [1] turned out to be 0.02 fold. The fold difference in affinity vs original in experiment [2] was found to be 0.02 fold.

B11: C5A (XPA23) VH F35L (antibody, V domains shown)
VH: EVQLLESGGGLVQPGGSLRLSCAASGFTFSKYFMLWVRQAPGKGLEWVSVISPSGGMTRYADSVKGRFTISRDNSKNTLYLQMNSLRAEDTAVYYCARVGYGGNSDYWGQGTLVTVSS
VL: DIQMTQSPSSVSASVGDRLTIICRASQDINRWLAWYQQTPGNAPKLLIHSATSLQSGVPSRFSGSGSGTDFTLTINSLQPEDFATYYCQQADSFPLTFGGGTKVEIK
On to B11, for which the fold difference in affinity vs original in experiment [1] and in experiment [3] was 0.78 fold throughout.

B12: C5A (XPA23) VH Y107E (antibody, V domains shown)
VH: EVQLLESGGGLVQPGGSLRLSCAASGFTFSKYFMFWVRQAPGKGLEWVSVISPSGGMTRYADSVKGRFTISRDNSKNTLYLQMNSLRAEDTAVYYCARVGYGGNSDEWGQGTLVTVSS
VL: DIQMTQSPSSVSASVGDRLTIICRASQDINRWLAWYQQTPGNAPKLLIHSATSLQSGVPSRFSGSGSGTDFTLTINSLQPEDFATYYCQQADSFPLTFGGGTKVEIK
B12: the fold affinity vs original in experiment [1] was determined as 0.9 fold. In addition, the fold difference in affinity vs original in experiment [2] came to 0.9 fold.

B13: C5A (XPA23) VH F35I (antibody, V domains shown)
VH: EVQLLESGGGLVQPGGSLRLSCAASGFTFSKYFMIWVRQAPGKGLEWVSVISPSGGMTRYADSVKGRFTISRDNSKNTLYLQMNSLRAEDTAVYYCARVGYGGNSDYWGQGTLVTVSS
VL: DIQMTQSPSSVSASVGDRLTIICRASQDINRWLAWYQQTPGNAPKLLIHSATSLQSGVPSRFSGSGSGTDFTLTINSLQPEDFATYYCQQADSFPLTFGGGTKVEIK
B13: the fold difference in affinity vs original in experiment [1] and in experiment [3] was 0.85 fold in each case.

B14: C5A (XPA23) VH F35V (antibody, V domains shown)
VH: EVQLLESGGGLVQPGGSLRLSCAASGFTFSKYFMVWVRQAPGKGLEWVSVISPSGGMTRYADSVKGRFTISRDNSKNTLYLQMNSLRAEDTAVYYCARVGYGGNSDYWGQGTLVTVSS
VL: DIQMTQSPSSVSASVGDRLTIICRASQDINRWLAWYQQTPGNAPKLLIHSATSLQSGVPSRFSGSGSGTDFTLTINSLQPEDFATYYCQQADSFPLTFGGGTKVEIK
As for B14, the fold difference in affinity vs original in experiment [1] and in experiment [3] was 0.89 fold each time.

B15: C5A (XPA23) VH Y107Q (antibody, V domains shown)
VH: EVQLLESGGGLVQPGGSLRLSCAASGFTFSKYFMFWVRQAPGKGLEWVSVISPSGGMTRYADSVKGRFTISRDNSKNTLYLQMNSLRAEDTAVYYCARVGYGGNSDQWGQGTLVTVSS
VL: DIQMTQSPSSVSASVGDRLTIICRASQDINRWLAWYQQTPGNAPKLLIHSATSLQSGVPSRFSGSGSGTDFTLTINSLQPEDFATYYCQQADSFPLTFGGGTKVEIK
For the molecule B15, the fold affinity vs original in experiment [1] was 0.87 fold. The fold difference in affinity vs original in experiment [2] was determined as 0.87 fold.

B16: C5A (XPA23) VH Y107T (antibody, V domains shown)
VH: EVQLLESGGGLVQPGGSLRLSCAASGFTFSKYFMFWVRQAPGKGLEWVSVISPSGGMTRYADSVKGRFTISRDNSKNTLYLQMNSLRAEDTAVYYCARVGYGGNSDTWGQGTLVTVSS
VL: DIQMTQSPSSVSASVGDRLTIICRASQDINRWLAWYQQTPGNAPKLLIHSATSLQSGVPSRFSGSGSGTDFTLTINSLQPEDFATYYCQQADSFPLTFGGGTKVEIK
B16: the fold difference in affinity vs original in experiment [1] and in experiment [2] was 0.83 fold each time.

B17: C5A (XPA23) VH F35A (antibody, V domains shown)
VH: EVQLLESGGGLVQPGGSLRLSCAASGFTFSKYFMAWVRQAPGKGLEWVSVISPSGGMTRYADSVKGRFTISRDNSKNTLYLQMNSLRAEDTAVYYCARVGYGGNSDYWGQGTLVTVSS
VL: DIQMTQSPSSVSASVGDRLTIICRASQDINRWLAWYQQTPGNAPKLLIHSATSLQSGVPSRFSGSGSGTDFTLTINSLQPEDFATYYCQQADSFPLTFGGGTKVEIK
On to B17, for which the fold difference in affinity vs original in experiment [1] and in experiment [3] was 0.07 fold in each case.

B18: C5A (XPA23) VH Y107S (antibody, V domains shown)
VH: EVQLLESGGGLVQPGGSLRLSCAASGFTFSKYFMFWVRQAPGKGLEWVSVISPSGGMTRYADSVKGRFTISRDNSKNTLYLQMNSLRAEDTAVYYCARVGYGGNSDSWGQGTLVTVSS
VL: DIQMTQSPSSVSASVGDRLTIICRASQDINRWLAWYQQTPGNAPKLLIHSATSLQSGVPSRFSGSGSGTDFTLTINSLQPEDFATYYCQQADSFPLTFGGGTKVEIK
In the case of B18, in experiment [1], the fold affinity vs original is 0.89 fold. Moreover, the fold difference in affinity vs original in experiment [2] amounted to 0.89 fold.

B19: C5A (XPA23) VH Y107K (antibody, V domains shown)
VH: EVQLLESGGGLVQPGGSLRLSCAASGFTFSKYFMFWVRQAPGKGLEWVSVISPSGGMTRYADSVKGRFTISRDNSKNTLYLQMNSLRAEDTAVYYCARVGYGGNSDKWGQGTLVTVSS
VL: DIQMTQSPSSVSASVGDRLTIICRASQDINRWLAWYQQTPGNAPKLLIHSATSLQSGVPSRFSGSGSGTDFTLTINSLQPEDFATYYCQQADSFPLTFGGGTKVEIK
For the molecule B19, in experiment [1], the fold affinity vs original worked out at 0.82 fold. Moreover, the fold difference in affinity vs original in experiment [2] amounted to 0.82 fold.
